Blank lines part the entries; values can stand above or below the substance they belong to.
Tests used:
[1] = biological target: Sec61 complex of T3-PK-RM (trypsin 3 μg/ml) (canine (endogenous in canine pancreas microsomes)) (UniProt P38377); experiment: radioligand binding
[2] = biological target: Sec61 complex of Th50-PK-RM (thermolysin 50 μg/ml, on ice) (canine (endogenous in canine pancreas microsomes)) (UniProt P38377); experiment: radioligand binding
[3] = biological target: Sec61 complex of C30-PK-RM (chymotrypsin 30 μg/ml) (canine (endogenous in canine pancreas microsomes)) (UniProt P38377); experiment: radioligand binding
[4] = biological target: Sec61 complex of C1-PK-RM (chymotrypsin 1 μg/ml) (canine (endogenous in canine pancreas microsomes)) (UniProt P38377); experiment: radioligand binding
[5] = biological target: Sec61 complex of C5-PK-RM (chymotrypsin 5 μg/ml) (canine (endogenous in canine pancreas microsomes)) (UniProt P38377); experiment: radioligand binding
[6] = biological target: Sec61 complex of C30-PK-RM (chymotrypsin 30 μg/ml) (canine (endogenous in canine pancreas microsomes)) (UniProt P38377); experiment: SEC
[7] = biological target: Sec61 complex of T10-PK-RM (trypsin 10 μg/ml) (canine (endogenous in canine pancreas microsomes)) (UniProt P38377); experiment: SEC
[8] = biological target: Sec61 complex of C5-PK-RM (chymotrypsin 5 μg/ml) (canine (endogenous in canine pancreas microsomes)) (UniProt P38377); experiment: SEC

Substance: canine ribosomes (nontranslating 80S ribosomes) (complex)
- percent of the high affinity ribosome binding sites of intact PK-RM [1]: 5%
- fold fewer ribosome binding sites than Th2-PK-RM [2]: 3 fold
- fold defect in ribosome binding against undigested PK-RM [3]: > 10 fold
- fold lower affinity than the sites of undigested PK-RM [3]: < 2 fold
- fold lower affinity than the sites of undigested PK-RM [4]: < 2 fold
- fold lower affinity than the sites of undigested PK-RM [5]: < 2 fold
- fold reduction of ribosome binding against undigested PK-RM [5]: 3 fold

Substance: ribosome-nascent chain complex bearing ffLuc77
- fold reduction of RNC binding relative to intact microsomes [6]: 3.5 fold

- fold less RNCs bound than undigested PK-RM [7]: 5 fold
- fold less RNCs bound than undigested PK-RM [6]: 2.7 fold
- percent of the bound RNCs insensitive to high salt extraction [6]: 80%
- fold decrease in RNC binding against undigested PK-RM [8]: 2 fold
Substance: ribosome-nascent chain complex bearing pPL86 (from UniProt P01239 1-86)
